Laboratory results: patent EP4810052A2 (Gubra A/S, dated 2026)
Like-named read-outs stand apart in the source and are kept apart here. Starred links: 1 amine or outer side, 2 acyl side, 3 side chain; linkers in the order of their positions; H or OH if unused. Non-standard residues stand in square brackets, D forms with d. Groups on a side chain read outwards from the residue. No end group written: not given here. *: point of attachment. C20 diacid = O=C(O)CCCCCCCCCCCCCCCCCCC(=O)*; γGlu = O=C(O)[C@H](CCC(=O)[*:2])N[*:1]; NMeI = CC[C@H](C)[C@H](NC)C(=O)O; Nle = CCCC[C@H](N)C(=O)O; lip = not defined here; AEEA = NCCOCCOCC(=O)O; Aib = CC(C)(N)C(=O)O

T1: human corticotropin-releasing hormone receptor 1 (human, UniProt P34998 24-415)
T1 sequence (looked up): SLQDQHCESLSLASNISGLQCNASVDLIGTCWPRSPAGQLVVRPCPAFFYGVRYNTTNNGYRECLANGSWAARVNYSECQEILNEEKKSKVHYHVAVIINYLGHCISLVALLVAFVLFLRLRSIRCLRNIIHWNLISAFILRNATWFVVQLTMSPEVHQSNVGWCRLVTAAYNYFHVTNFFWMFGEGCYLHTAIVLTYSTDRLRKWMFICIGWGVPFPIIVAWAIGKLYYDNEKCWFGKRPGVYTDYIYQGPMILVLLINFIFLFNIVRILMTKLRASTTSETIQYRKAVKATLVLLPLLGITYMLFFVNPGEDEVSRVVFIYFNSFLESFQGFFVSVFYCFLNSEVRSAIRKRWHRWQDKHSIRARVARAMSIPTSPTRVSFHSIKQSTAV

T2: mouse CRH receptor 1 (mouse, UniProt P35347 24-415)
T2 sequence (looked up): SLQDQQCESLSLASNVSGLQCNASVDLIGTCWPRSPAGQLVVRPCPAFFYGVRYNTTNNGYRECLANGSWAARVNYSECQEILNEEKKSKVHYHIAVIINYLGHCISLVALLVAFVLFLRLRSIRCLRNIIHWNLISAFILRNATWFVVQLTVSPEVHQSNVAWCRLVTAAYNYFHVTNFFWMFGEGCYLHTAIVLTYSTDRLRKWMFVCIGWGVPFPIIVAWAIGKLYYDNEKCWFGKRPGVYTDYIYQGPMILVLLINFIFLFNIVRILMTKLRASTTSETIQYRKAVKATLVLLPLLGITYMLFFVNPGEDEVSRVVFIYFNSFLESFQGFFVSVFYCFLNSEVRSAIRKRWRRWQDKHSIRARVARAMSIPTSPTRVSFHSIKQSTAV

T3: rat CRH receptor 1 (rat, UniProt P35353 24-415)
T3 sequence (looked up): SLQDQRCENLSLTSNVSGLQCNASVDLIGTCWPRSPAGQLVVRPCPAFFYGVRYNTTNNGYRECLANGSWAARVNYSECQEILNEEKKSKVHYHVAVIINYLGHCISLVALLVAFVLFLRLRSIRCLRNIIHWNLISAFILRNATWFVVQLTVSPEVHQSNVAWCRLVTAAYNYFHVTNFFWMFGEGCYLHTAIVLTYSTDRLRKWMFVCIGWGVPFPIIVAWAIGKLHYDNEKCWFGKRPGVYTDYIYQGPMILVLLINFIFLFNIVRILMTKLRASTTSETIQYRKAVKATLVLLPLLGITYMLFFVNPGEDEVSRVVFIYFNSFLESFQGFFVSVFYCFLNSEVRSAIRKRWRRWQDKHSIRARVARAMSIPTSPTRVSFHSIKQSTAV


Columns and labels:
Assay in all cases: cell-based or functional assay
[1] = target: T1, human corticotropin-releasing hormone …
porcine CRH receptor 1 = porcine CRH receptor 1 (pig)
mouse CRH receptor 1 = target: T2, mouse CRH receptor 1
rat CRH receptor 1 = target: T3, rat CRH receptor 1
[2] = target: T1, human corticotropin-releasing hormone …; remark: listed apart in the source
[3] = target: T1, human corticotropin-releasing hormone …; remark: listed apart in the source
[4] = target: T1, human corticotropin-releasing hormone …; remark: listed apart in the source

Binder	Stable EC50 (nM), hCRHR1; cAMP assay, stable CHO-K1 cells [1] [nM]	Transient cell system EC50 (nM), hCRHR1; cAMP assay, transiently transfected CHO-K1 cells [1] [nM]	Transient cell system EC50 (nM), pCRHR1; cAMP assay, transiently transfected CHO-K1 cells (porcine CRH receptor 1) [nM]	Transient cell system EC50 (nM), mCRHR1; cAMP assay, transiently transfected CHO-K1 cells (mouse CRH receptor 1) [nM]	Transient cell system EC50 (nM), rCRHR1; cAMP assay, transiently transfected CHO-K1 cells (rat CRH receptor 1) [nM]	hCRHR1 EC50 (nM); HTRF cAMP assay, CHO-K1 cells stably expressing hCRHR1 [2] [nM]	hCRHR1 EC50 (nM); HTRF cAMP assay, CHO-K1 cells stably expressing hCRHR1 [3] [nM]	hCRHR1 EC50 (nM); HTRF cAMP assay, CHO-K1 cells stably expressing hCRHR1 [4] [nM]
PVLSLDVPIGLLQILLSQARARAAREQAK[Aib]NAEI[Nle]AEV-NH2 (not fully specified (residue 29); printed as PVLSLDVPIGLLQILLSQARARAAREQA[K*][Aib]NAEI[Nle]AEV(NH_2); also: lipid and spacer on Lys29 not given here) [SEQ ID NO: 238, PVLSLDVPIGLLQILLSQARARAAREQA[K*][Aib]NAEI[Nle]AEV(NH2)]	> 5000	> 5000	> 5000	323	> 1000	> 5000		
[NMeI]VLSLDVPIGLLQILLEQARARAAREQAK(lip)TN[Aib]EILAEV-NH2 (reading uncertain; also: printed as [MeI]VLSLDVPIGLLQILLEQARARAAREQA[K*]TN[Aib]EILAEV(NH2)) [SEQ ID NO: 16, [MeI]VLSLDVPIGLLQILLEQARARAAREQA[K*]TN[Aib]EILAEV(NH2)]	> 5000	> 1000	> 5000	76	256		> 5000	
[NMeI]VLSLDVPIGLLQILLEQARARAAREQATKNAEILAEV-NH2 (not fully specified (residue 30); printed as [MeI]VLSLDVPIGLLQILLEQARARAAREQAT[K*]NAEILAEV(NH_2); also: lipid and spacer on Lys30 not given here) [SEQ ID NO: 6, [MeI]VLSLDVPIGLLQILLEQARARAAREQAT[K*]NAEILAEV(NH2)]	> 5000	> 1000	> 5000	71	275		> 5000	> 5000
[NMeI]VLSLDVPIGLLQILLSQARARAAREQAK([AEEA-AEEA-γGlu-γGlu-C20 diacid])TN[Aib]EI[Nle]AEV-NH2 (not fully specified; printed as [MeI]VLSLDVPIGLLQILLSQARARAAREQA[K*]TN[Aib]EI[Nle]AEV(NH_2)) [SEQ ID NO: 215, [MeI]VLSLDVPIGLLQILLSQARARAAREQA[K*]TN[Aib]EI[Nle]AEV(NH2)]	> 5000	826	> 1000	50	175	> 5000		
IVLSLDVPIGLLQILLEQARARAAREQAK(lip)TNAEILAEV-NH2 (not fully specified; reading uncertain) [SEQ ID NO: 3 (Lipidated UCN2 with X^36 = E; X^40 = E) (reference 1)]	> 5000	> 1000	> 5000	44	163	> 5000	> 5000	> 5000
